Primed or numbered codes have the meaning given here. Biotin′ = not defined here
T1: LRRC25(96-115) biotin peptide (human, not fully specified; N-terminal acetyl; C-terminal GGK-Biotin; native Cys changed to Ser)
T1 construct: also called Biotin LRRC25 (96-115) peptide
T1 peptide: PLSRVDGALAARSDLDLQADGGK

T2: LRRC25(126-145) biotin peptide (human, not fully specified; N-terminal acetyl; C-terminal GGK-Biotin; native Cys changed to Ser)
T2 peptide: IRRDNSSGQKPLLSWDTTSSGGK

T3: LRRC25(111-130) biotin peptide (human, not fully specified; N-terminal acetyl; C-terminal GGK-Biotin; native Cys changed to Ser)
T3 peptide: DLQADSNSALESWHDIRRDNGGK

T4: LRRC25(36-55) biotin peptide (human, not fully specified; N-terminal NH2; C-terminal GGK-Biotin; native Cys changed to Ser)
T4 peptide: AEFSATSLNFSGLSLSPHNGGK

T5: LRRC25(81-100) biotin peptide (human, not fully specified; N-terminal acetyl; C-terminal GGK-Biotin)
T5 peptide: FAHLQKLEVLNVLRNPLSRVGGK

T6: LRRC25(51-69) biotin peptide (human, not fully specified; N-terminal acetyl; C-terminal GGK-Biotin)
T6 peptide: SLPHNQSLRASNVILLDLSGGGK

T7: LRRC25(150-165) biotin peptide (human)
T7 peptide: Ac-SAFLEVSSAPGLASATGG-{Biotin′}

T8: LRRC25(141-159) biotin peptide (human, not fully specified; N-terminal acetyl; C-terminal GGK-Biotin; native Cys changed to Ser)
T8 peptide: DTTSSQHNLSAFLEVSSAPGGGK

T9: LRRC25(21-40) biotin peptide (human, not fully specified; N-terminal NH2; C-terminal GGK-Biotin; native Cys changed to Ser)
T9 peptide: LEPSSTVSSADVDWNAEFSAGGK

T10: LRRC25(66-85) biotin peptide (human, not fully specified; N-terminal acetyl; C-terminal GGK-Biotin)
T10 peptide: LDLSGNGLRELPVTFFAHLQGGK


Experiments:
[1] = biological target: T1, LRRC25(96-115) biotin peptide; test: ELISA, 20 nM antibody, biotinylated antigen on streptavidin plate
Procedure: (§1) To establish if functional chimera anti-LRRC25 antibodies recognize particular regions of LRRC25, ELISA experiments were performed using 10 plate-immobilized 16- to 20-mer overlapping LRRC25(ECD) biotin peptides (Table 7). Biotinylated human LRRC25-His served as a positive control. A typical ELISA was performed by coating overnight at 4° C., 3 ug/mL/25 ul per well of streptavidin (Jackson Immunoresearch, Cat. #016-030-084) in PBS in half-area high binding microtiter wells (Corning Cat. #3690). […] Biotin peptides or biotinylated human LRRC25-His protein were added in duplicate (2 ug/mL/25 ul per well) in assay buffer (blocking buffer containing 0.05% tween 20) and the plate incubated for 45 min at 37° C. The plate was washed as before, 20 nM anti-LRRC25 antibodies in assay buffer added in duplicate into appropriate wells, and the plate incubated as before. The plate was washed and HRP-conjugated secondary antibody in assay buffer added [25 ul per well; goat anti-human IgG (Jackson Immunoresearch, Cat. #715-035-150)], and incubated as before. Antibody bound to plate-immobilized peptide(s) or protein was determined at A450 nm using HRP substrate (3,3′,5,5′-tetramethylbenzidine (TMB); eBioscience; Cat. #00-4201-56); 100 μl/well).

[2] = biological target: T11, biotinylated human LRRC25-His protein (human, UniProt Q8N386 21-165, biotinylated (sites not given)); test: as above
T11 construct: also called Biotin LRRC25-His; biotinylated LRRC25 protein
Procedure: as §1

[3] = biological target: T2, LRRC25(126-145) biotin peptide; test: peptide ELISA
Procedure: as §1

[4] = biological target: T3, LRRC25(111-130) biotin peptide; test: peptide ELISA
Procedure: as §1

[5] = biological target: T4, LRRC25(36-55) biotin peptide; test: peptide ELISA
Procedure: as §1

[6] = biological target: T5, LRRC25(81-100) biotin peptide; test: peptide ELISA
Procedure: as §1

[7] = biological target: T6, LRRC25(51-69) biotin peptide; test: peptide ELISA
Procedure: as §1

[8] = biological target: T7, LRRC25(150-165) biotin peptide; test: peptide ELISA
Procedure: as §1

[9] = biological target: T8, LRRC25(141-159) biotin peptide; test: peptide ELISA
Procedure: as §1

[10] = biological target: T9, LRRC25(21-40) biotin peptide; test: peptide ELISA
Procedure: as §1

[11] = biological target: T10, LRRC25(66-85) biotin peptide; test: peptide ELISA
Procedure: as §1

[12] = biological target: T12, His-tagged human LRRC25 extracellular domain protein, human LRRC25-His (human, UniProt Q8N386 21-165); test: ELISA, plate-immobilized antigen
T12 construct: The entry holds the extracellular domain, a GSG linker and the His tag; also called LRRC25(ECD)-HIS
Procedure: (§2) To establish the relative binding strengths of anti-LRRC25 antibodies against human LRRC25, and their cross-reactivity with cynomolgus monkey LRRC25, antibody binding curve analyses were performed and EC50 values against plate-immobilized recombinant human and cyno LRRC25 proteins were determined.
(§3) A typical ELISA was performed by coating overnight in PBS, pH 7.4, at 4° C. in high binding microtiter wells with 1 ug/mL/100 ul per well of human LRRC25-His or cyno LRRC25-His. An anti-human LRRC25 antibody (2A3, LS Bio, LS-C174039-100) and anti-HIS-HRP (Miltenyi Biotec; 130-092-783) served as coating controls for the human and cyno LRRC25 proteins, respectively. […] Anti-LRRC25 antibodies were added (100 ul per well) at 500 nM and serially diluted 3-fold in assay buffer (1% skimmed milk in PBS, pH 7.4). The plate was incubated with gentle agitation for 1 h at room temperature. The plate was washed 3× and HRP-conjugated secondary antibody in assay buffer added [100 ul per well; goat anti-human IgG (Jackson Immunoresearch, cat #715-035-150)], and the plate was incubated as before. Antibody bound to plate-immobilized LRRC25(ECD)-HIS was determined at A450 nm using HRP substrate (3,3′,5,5′-tetramethylbenzidine (TMB); eBioscience; 00-4201-56); 100 μl/well).

[13] = biological target: T13, His-tagged cynomolgus monkey LRRC25 extracellular domain protein, cyno LRRC25-His (cynomolgus monkey); test: ELISA, plate-immobilized antigen
T13 construct: The entry holds the extracellular domain, a GSG linker and the His tag
Procedure: as §2, §3

[14] = biological target: T13, His-tagged cynomolgus monkey LRRC25 …; test: ELISA, plate-immobilized cyno LRRC25-His
Procedure: as §3

[15] = biological target: T1, LRRC25(96-115) biotin peptide; test: peptide ELISA
Procedure: as §1

T11 sequence (Q8N386 other isoform, or with tags, fused parts or gaps): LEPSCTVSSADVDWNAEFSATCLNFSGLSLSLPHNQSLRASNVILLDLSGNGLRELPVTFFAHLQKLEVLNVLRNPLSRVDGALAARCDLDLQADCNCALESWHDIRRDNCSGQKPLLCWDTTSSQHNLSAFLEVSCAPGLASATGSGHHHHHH
T12 sequence (Q8N386 other isoform, or with tags, fused parts or gaps): as above
T13 sequence (chain, as listed by the source limits assumed): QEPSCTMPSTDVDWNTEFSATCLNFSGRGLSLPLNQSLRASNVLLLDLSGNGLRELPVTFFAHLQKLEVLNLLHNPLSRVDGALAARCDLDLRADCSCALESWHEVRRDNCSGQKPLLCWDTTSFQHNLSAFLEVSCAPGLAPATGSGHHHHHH

absorbance (A450) [1] [A450] | absorbance (A450) [2] [A450] | binding result [3] | binding result [4] | binding result [5] | binding result [6] | binding result [7] | binding result [8] | binding result [9] | binding result [10] | binding result [11] | EC50 [12] [nM] | EC50 [13] [nM] | binding result [14] | binding result [15] | Binder
2.65 | 1.89 | no binding (tested: 20 nM) | no binding (tested: 20 nM) | no binding (tested: 20 nM) | no binding (tested: 20 nM) | no binding (tested: 20 nM) | no binding (tested: 20 nM) | no binding (tested: 20 nM) | no binding (tested: 20 nM) | no binding (tested: 20 nM) | 0.58 | ~500 |  |  | anti-LRRC25 chimeric antibody 1E11 (antibody, human IgG4, V domains shown) VH: EVQLLETGGGLVKPGGSLKLSCAASGFTFSSSAMSWVRQTPEKRLEWVTSISRGGNTYYPDSVKGRFTISRDNARNILYLQMSSLRSEDTAMYYCARGQELRLFAYWGQGTLVTVSA VL: DIVMTQDAFSNPVTLGTSASISCRSSKSLLHSNGITYLYWYLQKPGQSPQLLIYQMSNLASGVPDRFSSSGSGTDFTLRISRVEAEDVGVYYCAQNLELPFTFGSGTKLEIKR
1.64 | 1.88 | no binding (tested: 20 nM) | no binding (tested: 20 nM) | no binding (tested: 20 nM) | no binding (tested: 20 nM) | no binding (tested: 20 nM) | no binding (tested: 20 nM) | no binding (tested: 20 nM) | no binding (tested: 20 nM) | no binding (tested: 20 nM) | 1.3 | 42.5 |  |  | anti-LRRC25 chimeric antibody 1B03 (antibody, human IgG4, V domains shown) VH: EVQLVESGGGLVKPGGSLKLSCAASGFTFSSYAMSWVRQTPEKRLEWVASISRGGNTYYPDSMKGRFTISRDNARNILYLQMSSLRSEDTAMYYCARGQELRLFAYWGQGTLVTVSA VL: QILLTQSPASLAVSLGQRATISCRASESVDSYGNSFMHWYQQKPGQPPKLLIYLASNLESGVPARFSGSGSRTDFTLTIDPVEADDAATYYCQQNNEDPWTFGGGTKLEIKR
0.052 | 0.152 | no binding (tested: 20 nM) | no binding (tested: 20 nM) | no binding (tested: 20 nM) | no binding (tested: 20 nM) | no binding (tested: 20 nM) | no binding (tested: 20 nM) | no binding (tested: 20 nM) | no binding (tested: 20 nM) | no binding (tested: 20 nM) | ~1000 |  | no binding (tested: 500 nM) | no binding (tested: 20 nM) | anti-LRRC25 chimeric antibody 3E08 (antibody, human IgG4, V domains shown) VH: EVKLLESGGGLVKPGGSLKLSCAASGFTLSSYAMSWVRQTPEKRLEWVASISRSNTTYYPDSVKGRFTISRDNAKNILYLQMSSLRSEDTAMYYCARGVLLRPFASWGQGTLVTVSA VL: DIVMTQDAFSNPVTLGTSASISCRSSKSLLHSNGITYLYWYLQKPGQSPQLLIYQMSNLASGVPDRFSSSGSGTDFTLRISRVEAEDVGVYYCAQNLELPLTFGAGTKLELKR
2.33 | 0.456 | no binding (tested: 20 nM) | no binding (tested: 20 nM) | no binding (tested: 20 nM) | no binding (tested: 20 nM) | no binding (tested: 20 nM) | no binding (tested: 20 nM) | no binding (tested: 20 nM) | no binding (tested: 20 nM) | no binding (tested: 20 nM) | 4.1 | > 500 |  |  | anti-LRRC25 chimeric antibody 1A01 (antibody, human IgG4, V domains shown, also called mAb 1A01) VH: EVKLLESGGGLVKPGGSLKLSCAASGFTFSSYAMSWVRQTPEKRLEWVASISRGGNTYYPDSVKGRFTISRDNARNILYLQMSSLRSEDTAMYYCARGNYGNSPFAYWGQGTLVTVSA VL: DIVMTQSPASLAVSLGQRATISCRASKSVSTSGYSYMHWYQQKPGQPPKLLIYLASNLESGVPARFSGSGSGTDFTLNIHPVEEEDAATYYCQHSRELPFTFGSGTKLEIKR
0.334 | 0.421 | no binding (tested: 20 nM) | no binding (tested: 20 nM) | no binding (tested: 20 nM) | no binding (tested: 20 nM) | no binding (tested: 20 nM) | no binding (tested: 20 nM) | no binding (tested: 20 nM) | no binding (tested: 20 nM) | no binding (tested: 20 nM) | 73.4 | ~1000 |  |  | anti-LRRC25 chimeric antibody 1C10 (antibody, human IgG4, V domains shown) VH: EEKLDESGGGLVKPGGSLKLSCAASGFTFSSYAMSWVRQTPEKRLEWVASISRGGNTYYPDSVKGRFTISRDNARNILYLQMSSLRSEDTAMFYCARGDYGSSLFAYWGQGTLVTVSA VL: DIVMTQAAFSNPVTLGTSASISCRSSKSLLHSNGITYLYWYLQKPGQSPQLLIYQMSNLASGVPDRFSSSGSGTDFTLRISRVEAEDVGVYYCAQNLELPFTFGSGTKLEIKR

Source: patent publication US20220363752A1 (VERSEAU THERAPEUTICS, published 2022)
